This note sets out measurements from patent US20060228349A1 (published 2006).

Residue numbers refer to the chain shown, from its start.

Assay [1] addresses T1, Aβ-derived diffusible ligands (synthetic ADDLs), soluble oligomers of amyloid β1-42.
T1 construct: Oligomeric preparation of synthetic Aβ1-42 in DMSO/F12 (monomer, trimer, tetramer, 12-24mer on SDS-PAGE); number of copies not fixed; also called soluble Aβ oligomers
Description: immunofluorescence of ADDLs bound to primary hippocampal neurons.

Assay [2] has as its target T2, Biotinylated ADDL preparations (bADDLs) (N-terminal biotin).
T2 construct: Oligomer, number of copies not fixed; also called biotinylated ADDL antigen; high molecular weight 10% bADDL
Briefly: BIACORE, bADDL as antigen; column Fab (row shifted one column to the left). In general terms: SPR reads the build-up and loss of mass on a sensor chip optically.

Assay [3] has as its target T3, biotin-Aβ1-20 (biotin (position not given)).
T3 peptide: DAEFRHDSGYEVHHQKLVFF
Briefly: BIACORE, biotin-Aβ1-20 as antigen; column Fab.

Assay [4] deals with T4, ADDL fibril preparation (Aβ1-42 fibrils).
T4 construct: Fibrillar assembly; number of copies not fixed
Description: solution equilibrium titration, free IgG by ELISA, GraFit; SE 0.99. A general note: ELISA stands for enzyme-linked immunosorbent assay.

Assay [5] has as its target T1, Aβ-derived diffusible ligands …. Briefly: solution equilibrium titration, free IgG by ELISA, GraFit; SE 0.25.
Assay [6] concerns the target T5, amyloid beta (1-40) peptide.
T5 construct: Used as monomer-like control; also called Aβ1-40; monomer preparation
Briefly: solution equilibrium titration, free IgG by ELISA, GraFit; SE 2.64.

For assay [7], the target named is T6, SEC Peak 1 fraction of ADDLs (large aggregates, >50 kDa).
T6 construct: Monomer, trimer, tetramer and 12-24mer on SDS-PAGE
Briefly: sandwich ELISA on SEC peaks (FIG. 3).

The target in assay [8] is T7, SEC Peak 2 fraction of ADDLs (small aggregates, <30 kDa).
T7 construct: Mostly monomer with small amounts of trimer and tetramer, no 12-24mer
Description: sandwich ELISA on SEC peaks (FIG. 3).

For the next assay, the target named is T8, Aβ1-20 peptide.
T8 peptide: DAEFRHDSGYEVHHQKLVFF
Briefly: peptide ELISA.

The target of assay [9] is T4, ADDL fibril preparation (Aβ1-42 fibrils). Briefly: solution equilibrium titration, free IgG by ELISA, GraFit; SE 0.59.
Assay [10] has as its target T5, amyloid beta (1-40) peptide. Briefly: solution equilibrium titration, free IgG by ELISA, GraFit; SE 21.86.
Assay [11] concerns the target T1, Aβ-derived diffusible ligands …. Description: solution equilibrium titration, free IgG by ELISA, GraFit; SE 0.74.
Assay [12] deals with T5, amyloid beta (1-40) peptide. Description: solution equilibrium titration, free IgG by ELISA, GraFit; SE 2.07.
Assay [13] concerns the target T4, ADDL fibril preparation (Aβ1-42 fibrils). Briefly: solution equilibrium titration, free IgG by ELISA, GraFit; SE 1.60.
The target in assay [14] is T1, Aβ-derived diffusible ligands …. Description: solution equilibrium titration, free IgG by ELISA, GraFit; SE 0.42.
Assay [15] concerns the target T4, ADDL fibril preparation (Aβ1-42 fibrils). Description: solution equilibrium titration, free IgG by ELISA, GraFit; SE 3.69.
The target in assay [16] is T1, Aβ-derived diffusible ligands …. Briefly: solution equilibrium titration, free IgG by ELISA, GraFit; SE 1.03.
The target of assay [17] is T5, amyloid beta (1-40) peptide. Briefly: solution equilibrium titration, free IgG by ELISA, GraFit; SE 4.14.
Assay [18] addresses T2, Biotinylated ADDL preparations (bADDLs). Briefly: BIACORE, bADDL as antigen; column IgG1#1.
Assay [19] addresses T3, biotin-Aβ1-20. Description: BIACORE, biotin-Aβ1-20 as antigen; column IgG1#2.
Assay [20] has as its target T2, Biotinylated ADDL preparations (bADDLs). Briefly: BIACORE, bADDL as antigen; column IgG1#2.
Assay [21] addresses T3, biotin-Aβ1-20. Briefly: BIACORE, biotin-Aβ1-20 as antigen; column IgG1#1.
Assay [22] has as its target T2, Biotinylated ADDL preparations (bADDLs). Description: BIACORE, bADDL as antigen; column Fab.

B1: murine anti-ADDL monoclonal antibody 2H4 (antibody, mouse IgG2a, V domains shown)
VH: DVQLVESGGGLVQPGGSRKLSCAASGFTFSSFGMHWVRQAPEKGLEWVAYIRSGSSTIYYADTVKGRFTISRDNPKNTLFLQMTSLRSEDTAMYYCTRGGNYYGSSRFAYWGQGTLVTVSA
VL: DIKMTQSPSSMYASLGERVTITCKASQDINSYLSWFQQKPGKSPKTLIYRANRFVDGVPSRFSGSGSGQDYSLTISSLEYEDMGIYFCLQYDEFPLTFGAGTKLVLK
For the molecule B1, in assay [1], the binding result is given as “binds”.

B2: Fab of mouse 20C2 (Fab, V domains shown)
VH: QVTLKESGPGILKPSQTLSLTCSLSGFSLSTSGMGVGWFRQPSGKGLEWLAHIWWDDDKSYNPSLKSRLTISKYTSRNQVFLTITSVDTADTATYYCARRQLGLRSIDAMDYWGQGTSVTVSS
VL: DVLMTQTPLSLPVSLGDQASISCRSSQSILHSNGNTYLEWYLQKPGQSPKLLIYKVSNRFSGVPDRFSGSGSGTDFTLKISRVEAEDLGVYYCFQGSLVPLTFGAGTKLELK
notes: also called Mouse-20C2 (Fab column)
As to B2, the Kd – broadly, the concentration at which binding is half-saturated – in assay [2] amounted to 62 nM; with biotin-Aβ1-20 [3], 83 nM.

B3: murine anti-ADDL monoclonal antibody 2A10 (antibody, mouse IgG1, V domains shown)
VH: QVTLKESGPGILKPSQTLSLTCSFSGFSLSTSGMGVGWIRQPSGKGLEWLAHIWWDDDKYYNPSLKSQLTISKDTSRNQVFLKITSVDTADTATYYCARRSISTLVPEDYFDYWGQGTTLTVSS
VL: B2 VL with L30V, L98H
Regarding B3, the Kd in assay [4] stood at 6.72 nM; in assay [5] it was 2.29 nM; in [6], 14.7 nM. Moreover, the binding result in [7] and in [8] was “binds” each time.

B4: murine anti-ADDL monoclonal antibody 3B3 (antibody, mouse IgG1, V domains shown)
VH: DVQLVESGGGLVQPGGSRKLSCAASGFTFSSFGMHWVRQAPEKGLEWVAYISRGSSTIYYADTVKGRFTISRDNPKNTLFLQMTSLRSEDTAMYYCARGITTALDYWGQGTSVTVSS
VL: B2 VL with L30V, V56A, L98H, L101P, A105G, L111I
As for B4, the binding result with Aβ1-20 peptide is recorded as “binds”. Moreover, the Kd was 7.21 nM in [9], 105 nM in assay [10] and 10 nM in assay [11].

B5: murine anti-ADDL monoclonal antibody 1F6 (antibody, mouse IgG1, V domains shown)
VH: DVQLVESGGGLVQPGGSRKLSCAASGFTFSSFGMHWVRQAPEKGLEWVAYISSVSSTIYYADTVKGRFTISRDNPKNTLFLQMTSLRSEDTAMYYCARSGYGSSYGYGMDYWGQGTLVTVSS
VL: B2 VL with L30V, L98H
For the molecule B5, the binding result with Aβ1-20 peptide is given as “binds”.

B6: murine anti-ADDL monoclonal antibody 4E2 (antibody, mouse IgG1, V domains shown)
VH: B3 VH with S103N, T104S, L105V, S124L
VL: B2 VL with L30V, L98H
Consider B6, for which the Kd in [12] amounted to 20.2 nM; in [13] it was 9.4 nM; in [14], 4.26 nM. Besides, the binding result in assay [7] and in assay [8] was “binds” throughout.

B7: murine anti-ADDL monoclonal antibody 4C2 (antibody, mouse IgG1, V domains shown)
VH: B3 VH with S103T, L105V, D112A
VL: B2 VL with T7S, L30V, L98H
On to B7, for which the Kd in assay [15] was found to be 19.2 nM; in [16], 8.08 nM; in [17] it was 21.9 nM. Besides, the binding result in assay [7] and in assay [8] was “binds” each time.

B8: 20C2-2A, affinity matured humanized 20C2, IgG1 humanized A version (antibody, V domains shown)
VH: QVTLKESGPALVKPTQTLTLTCTFSGFSLSTSGMGVGWIRQPPGKALEWLAHIWWDDDKSYNPSLKSRLTISKDTSKNQVVLTMTNMDPVDTATYYCARRQLGLRSIDAMDYWGQGTTVTVSS
VL: DVVMTQSPLSLPVTPGEPASISCRSSQSILHSNGNTYLEWYLQKPGQSPQLLIYKVSNRFSGVPDRFSGSGSGTDFTLKISRVEAEDVGVYYCFQATRVPLTFGQGTKLEIKR
notes: also called SJ-p1-18
Turning to B8, the Kd was determined as 0.015 nM in assay [18], 2 nM in the assay with biotin-Aβ1-20 [19], 0.0003 nM in [20] and 0.686 nM in the assay with biotin-Aβ1-20 [21].

B9: 20C2-23A, affinity matured humanized 20C2, IgG1 humanized A version (antibody, V domains shown)
VH: B8 VH
VL: B8 VL with F94H, A96S, T97S, R98K
notes: also called 4P1-40
Regarding B9, the dissociation constant Kd in [18] came out at 0.085 nM; with biotin-Aβ1-20 [19] it was 1.5 nM; in [20], 0.066 nM; in the assay with biotin-Aβ1-20 [21] it was 0.649 nM.

B10: 20C2-8A, affinity matured humanized 20C2, IgG1 humanized A version (antibody, V domains shown)
VH: B8 VH
VL: B8 VL with F94L, A96T
notes: also called SJ-p2-39
Take B10: the Kd worked out at 0.003 nM in assay [18], 0.376 nM with biotin-Aβ1-20 [19], 0.0007 nM in assay [20] and 0.14 nM with biotin-Aβ1-20 [21].

B11: 20C2-5A, affinity matured humanized 20C2, IgG1 humanized A version (antibody, V domains shown)
VH: B8 VH
VL: B8 VL with A96S, T97S, R98F
notes: also called SJ-p2-1F
B11: the Kd in assay [18] stood at 0.317 nM; with biotin-Aβ1-20 [19], 1.5 nM; in assay [20], 0.068 nM; in the assay with biotin-Aβ1-20 [21] it was 0.912 nM.

B12: 20C2-9A, affinity matured humanized 20C2, IgG1 humanized A version (antibody, V domains shown)
VH: B8 VH
VL: B8 VL with F94V, A96T, T97S, R98L
notes: also called SJ-p2-51
Turning to B12, the Kd was determined as 0.42 nM with biotin-Aβ1-20 [19], 0.002 nM in [20] and 0.241 nM with biotin-Aβ1-20 [21].

B13: 20C2-8B, affinity matured humanized 20C2, IgG1 humanized B version (antibody, V domains shown)
VH: B8 VH with F24L
VL: B8 VL with F94L, A96T
notes: also called SJ-p2-39
As to B13, the Kd was 0.013 nM in assay [18], 0.064 nM in the assay with biotin-Aβ1-20 [19], 0.0008 nM in assay [20] and 0.046 nM with biotin-Aβ1-20 [21].

B14: 20C2-6A, affinity matured humanized 20C2, IgG1 humanized A version (antibody, V domains shown)
VH: B8 VH
VL: B8 VL with A96S, T97S
notes: also called 4P1-22
On to B14, for which the Kd was 0.0043 nM in assay [18], 0.714 nM with biotin-Aβ1-20 [19], 0.024 nM in assay [20] and 0.544 nM with biotin-Aβ1-20 [21].

B15: 20C2-9A Fab fragment (clone SJ-p2-51) (Fab, V domains shown)
VH: B8 VH
VL: B8 VL with F94V, A96T, T97S, R98L
On to B15, for which the Kd stood at 36 nM with biotin-Aβ1-20 [3] and 40 nM in assay [22].

B16: 20C2-13A Fab fragment (clone 4p1-20) (Fab, V domains shown)
VH: B8 VH
VL: B8 VL with F94L, A96T, T97S, R98N
For B16, the Kd stood at 94 nM with biotin-Aβ1-20 [3] and 567 nM in assay [22].

B17: 20C2-12A Fab fragment (clone 4P1-32) (Fab, V domains shown)
VH: B8 VH
VL: B8 VL with F94L, A96S, T97S, R98L
As to B17, the Kd with biotin-Aβ1-20 [3] came out at 617 nM; in assay [22], 238 nM.

B18: 20C2-18A Fab fragment (clone SJ-p1-9M) (Fab, V domains shown)
VH: B8 VH
VL: B8 VL with F94M, A96S, T97S, R98F
As to B18, the values for the Kd (in the assay with biotin-Aβ1-20 [3]; in assay [22]) were 126 nM and 85 nM, respectively.

B19: 20C2-8A Fab fragment (clone SJ-p2-39) (Fab, V domains shown)
VH: B8 VH
VL: B8 VL with F94L, A96T
Turning to B19, the results for the Kd (with biotin-Aβ1-20 [3]; in assay [22]) were 14 nM and 13 nM, respectively.
